Tested on: Escherichia coli TOP10
Experiment: shrunken log2 fold change of peptide-encoding DNA abundance (4.5 h post-induction vs induction); higher = less antimicrobial activity (less host growth inhibition)
Details: time post-induction: 4.5 h; library: site-saturation at positions 5, 18, 19, 20
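Further: peptides expressed intracellularly from a pBAD plasmid library in pooled LB shake-flask culture, induced with 0.3% L-arabinose, DNA abundance read by NGS, three biological replicates, DESeq2 with apeglm shrinkage.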

Row | Sequence | shrunken log2 fold change
1 | RRIRIRPPRLPRPRPRPPSSPRP | -0.0293
2 | RRIRIRPPRLPRPRPRPPTTPRP | 0.0744
3 | RRIRIRPPRLPRPRPRPPTYPRP | -0.427
4 | RRIRIRPPRLPRPRPRPPVCPRP | 0.108
5 | RRIRIRPPRLPRPRPRPPVHPRP | -0.185
6 | RRIRIRPPRLPRPRPRPPYQPRP | 2.02
7 | RRIRIRPPRLPRPRPRPQAEPRP | 0.172
8 | RRIRIRPPRLPRPRPRPQAGPRP | -0.16
9 | RRIRIRPPRLPRPRPRPQAQPRP | -0.108
10 | RRIRIRPPRLPRPRPRPQCAPRP | -0.272
11 | RRIRIRPPRLPRPRPRPQCEPRP | -0.0436
12 | RRIRIRPPRLPRPRPRPQCNPRP | -0.0824
13 | RRIRIRPPRLPRPRPRPQDLPRP | -0.527
14 | RRIRIRPPRLPRPRPRPQFRPRP | -0.234
15 | RRIRIRPPRLPRPRPRPQFVPRP | -0.229
16 | RRIRIRPPRLPRPRPRPQGTPRP | -0.272
17 | RRIRIRPPRLPRPRPRPQHPPRP | -0.176
18 | RRIRIRPPRLPRPRPRPQHWPRP | 0.112
19 | RRIRIRPPRLPRPRPRPQHYPRP | -1.3
20 | RRIRIRPPRLPRPRPRPQIMPRP | -1.16
21 | RRIRIRPPRLPRPRPRPQKSPRP | -0.403
22 | RRIRIRPPRLPRPRPRPQNNPRP | -0.957
23 | RRIRIRPPRLPRPRPRPQNPPRP | -0.38
24 | RRIRIRPPRLPRPRPRPQNTPRP | -0.86
25 | RRIRIRPPRLPRPRPRPQRAPRP | -0.249

Row | Sequence | shrunken log2 fold change
26 | RRIRIRPPRLPRPRPRPQRTPRP | 0.0834
27 | RRIRIRPPRLPRPRPRPQSMPRP | -0.138
28 | RRIRIRPPRLPRPRPRPQSQPRP | -0.513
29 | RRIRIRPPRLPRPRPRPQSTPRP | -0.427
30 | RRIRIRPPRLPRPRPRPQTWPRP | -0.169
31 | RRIRIRPPRLPRPRPRPQVMPRP | -0.604
32 | RRIRIRPPRLPRPRPRPQWEPRP | -0.0938
33 | RRIRIRPPRLPRPRPRPQWNPRP | -0.316
34 | RRIRIRPPRLPRPRPRPQWRPRP | -0.191
35 | RRIRIRPPRLPRPRPRPRCKPRP | -0.35
36 | RRIRIRPPRLPRPRPRPRCQPRP | 0.00087
37 | RRIRIRPPRLPRPRPRPRCSPRP | -0.137
38 | RRIRIRPPRLPRPRPRPREPPRP | 0.183
39 | RRIRIRPPRLPRPRPRPREQPRP | 0.198
40 | RRIRIRPPRLPRPRPRPRFDPRP | -0.282
41 | RRIRIRPPRLPRPRPRPRFVPRP | -0.104
42 | RRIRIRPPRLPRPRPRPRFYPRP | -0.124
43 | RRIRIRPPRLPRPRPRPRGVPRP | 0.0556
44 | RRIRIRPPRLPRPRPRPRHPPRP | -0.0642
45 | RRIRIRPPRLPRPRPRPRIAPRP | -0.0281
46 | RRIRIRPPRLPRPRPRPRIDPRP | -0.0642
47 | RRIRIRPPRLPRPRPRPRIEPRP | -0.246
48 | RRIRIRPPRLPRPRPRPRIQPRP | -0.275
49 | RRIRIRPPRLPRPRPRPRKGPRP | 0.05
50 | RRIRIRPPRLPRPRPRPRNEPRP | 0.227

Row | Sequence | shrunken log2 fold change
51 | RRIRIRPPRLPRPRPRPRNMPRP | -0.243
52 | RRIRIRPPRLPRPRPRPRNSPRP | 0.0503
53 | RRIRIRPPRLPRPRPRPRNTPRP | -0.208
54 | RRIRIRPPRLPRPRPRPRNVPRP | -0.247
55 | RRIRIRPPRLPRPRPRPRRQPRP | 0.0868
56 | RRIRIRPPRLPRPRPRPRTCPRP | -0.282
57 | RRIRIRPPRLPRPRPRPRTKPRP | 0.161
58 | RRIRIRPPRLPRPRPRPRVCPRP | 0.00058
59 | RRIRIRPPRLPRPRPRPRVKPRP | -0.0816
60 | RRIRIRPPRLPRPRPRPRYDPRP | -0.285
61 | RRIRIRPPRLPRPRPRPRYKPRP | -0.593
62 | RRIRIRPPRLPRPRPRPSAEPRP | -0.0944
63 | RRIRIRPPRLPRPRPRPSDIPRP | -0.366
64 | RRIRIRPPRLPRPRPRPSEFPRP | -0.177
65 | RRIRIRPPRLPRPRPRPSFWPRP | 0.059
66 | RRIRIRPPRLPRPRPRPSIEPRP | -0.407
67 | RRIRIRPPRLPRPRPRPSIIPRP | -0.866
68 | RRIRIRPPRLPRPRPRPSIKPRP | -0.64
69 | RRIRIRPPRLPRPRPRPSIMPRP | -0.469
70 | RRIRIRPPRLPRPRPRPSISPRP | -0.046
71 | RRIRIRPPRLPRPRPRPSKCPRP | -0.788
72 | RRIRIRPPRLPRPRPRPSLWPRP | 0.211
73 | RRIRIRPPRLPRPRPRPSNEPRP | -0.945
74 | RRIRIRPPRLPRPRPRPSNWPRP | -0.257
75 | RRIRIRPPRLPRPRPRPSPWPRP | -0.34

Row | Sequence | shrunken log2 fold change
76 | RRIRIRPPRLPRPRPRPSQAPRP | -0.244
77 | RRIRIRPPRLPRPRPRPSQNPRP | -0.766
78 | RRIRIRPPRLPRPRPRPSRKPRP | -0.148
79 | RRIRIRPPRLPRPRPRPSSAPRP | -0.666
80 | RRIRIRPPRLPRPRPRPSSGPRP | -0.219
81 | RRIRIRPPRLPRPRPRPSSHPRP | -1.02
82 | RRIRIRPPRLPRPRPRPSTLPRP | -0.726
83 | RRIRIRPPRLPRPRPRPSTPPRP | -0.373
84 | RRIRIRPPRLPRPRPRPSVWPRP | -0.221
85 | RRIRIRPPRLPRPRPRPSWFPRP | -0.529
86 | RRIRIRPPRLPRPRPRPSWNPRP | -0.49
87 | RRIRIRPPRLPRPRPRPSYKPRP | -1.42
88 | RRIRIRPPRLPRPRPRPTCCPRP | 0.111
89 | RRIRIRPPRLPRPRPRPTCKPRP | -0.466
90 | RRIRIRPPRLPRPRPRPTEGPRP | 0.00534
91 | RRIRIRPPRLPRPRPRPTFAPRP | -0.176
92 | RRIRIRPPRLPRPRPRPTFDPRP | -0.188
93 | RRIRIRPPRLPRPRPRPTFEPRP | 0.168
94 | RRIRIRPPRLPRPRPRPTFRPRP | -0.261
95 | RRIRIRPPRLPRPRPRPTFYPRP | -0.462
96 | RRIRIRPPRLPRPRPRPTGSPRP | 0.087
97 | RRIRIRPPRLPRPRPRPTGVPRP | 0.039
98 | RRIRIRPPRLPRPRPRPTIDPRP | -0.356
99 | RRIRIRPPRLPRPRPRPTILPRP | -0.248
100 | RRIRIRPPRLPRPRPRPTKWPRP | -0.15

Row | Sequence | shrunken log2 fold change
101 | RRIRIRPPRLPRPRPRPTLMPRP | -0.0204
102 | RRIRIRPPRLPRPRPRPTMIPRP | -0.224
103 | RRIRIRPPRLPRPRPRPTMQPRP | 0.0261
104 | RRIRIRPPRLPRPRPRPTPWPRP | 0.154
105 | RRIRIRPPRLPRPRPRPTRHPRP | 0.0172
106 | RRIRIRPPRLPRPRPRPTRTPRP | 0.22
107 | RRIRIRPPRLPRPRPRPTSFPRP | -0.11
108 | RRIRIRPPRLPRPRPRPTSLPRP | -0.14
109 | RRIRIRPPRLPRPRPRPTTNPRP | -0.463
110 | RRIRIRPPRLPRPRPRPTTYPRP | -0.868
111 | RRIRIRPPRLPRPRPRPTVDPRP | 0.11
112 | RRIRIRPPRLPRPRPRPTVFPRP | -0.237
113 | RRIRIRPPRLPRPRPRPTVMPRP | -0.0131
114 | RRIRIRPPRLPRPRPRPTVVPRP | -0.0277
115 | RRIRIRPPRLPRPRPRPTWEPRP | -0.212
116 | RRIRIRPPRLPRPRPRPTWFPRP | 0.159
117 | RRIRIRPPRLPRPRPRPTYAPRP | -0.612
118 | RRIRIRPPRLPRPRPRPVCPPRP | -0.0123
119 | RRIRIRPPRLPRPRPRPVDRPRP | 0.0811
120 | RRIRIRPPRLPRPRPRPVDTPRP | -0.282
121 | RRIRIRPPRLPRPRPRPVDWPRP | -0.0226
122 | RRIRIRPPRLPRPRPRPVEYPRP | -0.116
123 | RRIRIRPPRLPRPRPRPVGRPRP | 0.0883
124 | RRIRIRPPRLPRPRPRPVGSPRP | 0.36
125 | RRIRIRPPRLPRPRPRPVHGPRP | -0.0643

Row | Sequence | shrunken log2 fold change
126 | RRIRIRPPRLPRPRPRPVKEPRP | -0.0496
127 | RRIRIRPPRLPRPRPRPVKIPRP | 0.0113
128 | RRIRIRPPRLPRPRPRPVKMPRP | -0.173
129 | RRIRIRPPRLPRPRPRPVLGPRP | 0.0875
130 | RRIRIRPPRLPRPRPRPVLHPRP | -0.447
131 | RRIRIRPPRLPRPRPRPVLLPRP | -0.03
132 | RRIRIRPPRLPRPRPRPVLNPRP | -0.492
133 | RRIRIRPPRLPRPRPRPVLQPRP | 0.103
134 | RRIRIRPPRLPRPRPRPVLYPRP | -0.598
135 | RRIRIRPPRLPRPRPRPVMGPRP | -0.718
136 | RRIRIRPPRLPRPRPRPVNEPRP | -0.213
137 | RRIRIRPPRLPRPRPRPVNGPRP | -0.0532
138 | RRIRIRPPRLPRPRPRPVNRPRP | -0.195
139 | RRIRIRPPRLPRPRPRPVPWPRP | 2.5
140 | RRIRIRPPRLPRPRPRPVQAPRP | 0.0348
141 | RRIRIRPPRLPRPRPRPVQIPRP | 0.072
142 | RRIRIRPPRLPRPRPRPVQRPRP | -0.039
143 | RRIRIRPPRLPRPRPRPVQYPRP | -0.106
144 | RRIRIRPPRLPRPRPRPVRYPRP | 0.326
145 | RRIRIRPPRLPRPRPRPVSSPRP | -0.213
146 | RRIRIRPPRLPRPRPRPVSVPRP | -0.191
147 | RRIRIRPPRLPRPRPRPVVEPRP | -0.0638
148 | RRIRIRPPRLPRPRPRPVWDPRP | -0.14
149 | RRIRIRPPRLPRPRPRPVWIPRP | -0.242
150 | RRIRIRPPRLPRPRPRPVYMPRP | -0.678
